Experimental data as given in paper PMC12350152 (Nature Structural & Molecular Biology, 2025).

B1: RUPA-44 mAb (IgG) (antibody, V domains shown)
VH: QLQLQESGPGLVKPSETLSLTCTVSGGSISRSPYYWGWIRQPPGKGLEWFGSIYNNGSTYYNPPLKSRLTISVDTSKNQFSLKLSSVTAADTAVYYCARHGGSTGMKVVVIAPPDYWGQGTLVTVSS
VL: DIQMTQSPATLSASVGDRVTITCRASQSISSWLAWYQQKPGEAPKLLIYKASSLQSGVPSRFSGSGSGTKFSLTISSLQPDDFATFYCQQYHSYPYTFGQGTKLEIK
B2: 10D8 Fab (Fab, V domains shown)
VH: EVMLVESGGDLVKPGGSLKVSCAASGFTFSNYAMSWVRQTPEKRLEWVATISSGASYTHYPDSVKGRFTISRDNAKNTLYLQMSSLRSEDTAMYYCGRQVNRHDRALDAMDYWGQGTSVTVSP
VL: not shown

Legend:
[1] = target: T1, Pfs48/45 fragment containing D3 (ELISA antigen) (Plasmodium falciparum, strain not …); experiment: ELISA
T1 chain: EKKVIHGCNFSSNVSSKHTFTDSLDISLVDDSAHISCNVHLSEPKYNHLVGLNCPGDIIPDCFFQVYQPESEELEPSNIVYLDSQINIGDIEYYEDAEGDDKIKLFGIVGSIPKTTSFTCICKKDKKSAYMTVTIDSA

[2] = target: recombinant full-length Pfs48/45 (ELISA antigen) (Plasmodium falciparum, strain not …, UniProt Q8I6T1); experiment: ELISA
[3] = target: Pfs48/45 on live female Pf NF54 gametes (Plasmodium falciparum NF54 (3D7 is its …, UniProt Q8I6T1)); experiment: flow cytometry on cells
[4] = target: Pfs48/45 D1D2 (domains 1 and 2, aa 27–294), native sequence (Plasmodium falciparum (isolate 3D7)., UniProt Q8I6T1); experiment: BLI
Chain of Pfs48/45 D1D2 (domains 1 and 2, aa 27–294), native sequence (Q8I6T1 27-294): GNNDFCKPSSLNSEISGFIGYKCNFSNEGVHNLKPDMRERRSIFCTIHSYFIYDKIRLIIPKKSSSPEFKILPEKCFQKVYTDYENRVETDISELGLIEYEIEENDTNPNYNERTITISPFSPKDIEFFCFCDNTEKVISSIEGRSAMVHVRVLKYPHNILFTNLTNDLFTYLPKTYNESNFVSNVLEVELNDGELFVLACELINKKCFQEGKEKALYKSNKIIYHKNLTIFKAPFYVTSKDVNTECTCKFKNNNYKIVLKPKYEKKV

Chain of Pfs48/45 on live female Pf NF54 gametes (Plasmodium falciparum NF54 (Q8I6T1 28-426): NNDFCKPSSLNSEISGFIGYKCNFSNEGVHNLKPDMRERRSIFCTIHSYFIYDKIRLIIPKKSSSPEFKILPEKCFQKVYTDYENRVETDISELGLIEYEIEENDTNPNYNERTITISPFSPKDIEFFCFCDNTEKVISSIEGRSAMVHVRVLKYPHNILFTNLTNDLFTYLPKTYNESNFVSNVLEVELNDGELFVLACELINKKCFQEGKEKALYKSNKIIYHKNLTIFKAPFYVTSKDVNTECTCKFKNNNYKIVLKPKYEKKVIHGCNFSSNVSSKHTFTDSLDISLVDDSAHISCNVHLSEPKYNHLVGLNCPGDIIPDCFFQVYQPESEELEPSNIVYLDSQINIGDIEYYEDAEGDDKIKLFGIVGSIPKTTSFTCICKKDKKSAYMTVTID
Chain of recombinant full-length Pfs48/45 (ELISA antigen) (Q8I6T1 28-426): as above

| Binder | binding result [1] | binding result [2] | binding result [3] | binding result [4] |
| --- | --- | --- | --- | --- |
| B1 | binds | binds | binds | – |
| B2 | – | – | – | binds |
